± gives the standard error.
B1: library; numbered along this chain (parent)
chain: MATDAALRRLLRLHRTEIAVAVDSAFPLLHALADHDVVPEDKFQETLHLKEKEGCPQAFHALLSWLLTQDSTAILDFWRVLFKDYNLERYGRLQPILDSFPKDVDLSQPRKGRKPPAVPKALVPPPRLPTKRKASEEARAAAPAALTPRGTASPGSQLKAKPPKKPESSAEQQRLPLGNGIQTMSASVQRAVAMSSGDVPGARGAVEGILIQQVFESGGSKKCIQVGGEFYTPSKFEDSGSGKNKARSSSGPKPLVRAKGAQGAAPGGGEARLGQQGSVPAPLALPSDPQLHQKNEDECAVCRDGGELICCDGCPRAFHLACLSPPLREIPSGTWRCSSCLQATVQEVQPRAEEPRPQEPPVETPLPPGLRSAGEEVRGPPGEPLAGMDTTLVYKHLPAPPSAAPLPGLDSSALHPLLCVGPEGQQNLAPGARCGVCGDGTDVLRCTHCAAAFHWRCHFPAGTSRPGTGLRCRSCSGDVTPAPVEGVLAPSPARLAPGPAKDDTASHEPALHRDDLESLLSEHTFDGILQWAIQSMARPAAPFPS

Variants of: B1
Assay: AIRE transcriptional activation functional score (insulin promoter-GFP; nonsense median 0, synonymous median 1) (normalised score); higher = higher AIRE activity (more reporter activation)
Conditions: with insulin promoter-GFP reporter in HEK293
Method: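 Deep mutational scan of full-length human AIRE (codon-optimized cDNA, DT-POPCode NNN libraries over three regions) integrated at a Bxb1 landing pad in HEK293 cells carrying an insulin core promoter-GFP reporter at a Flp-In site. Cells were sorted for the top 10% GFP about 14 days after transfection. Variant frequency log-ratios (select vs non-select, TileSeq) were rescaled so that the nonsense median is 0 and the synonymous median is 1, then averaged over biological replicates.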

AIRE transcriptional activation functional score, by site and new letter:
A160: N 0.242 ± 0.33, Y 1.08 ± 0.36, P -0.0016 ± 0.82, I 0.857 ± 0.48, M 0.0796 ± 0.22, F 1.12 ± 0.29, T 0.43 ± 0.44, L 0.749 ± 0.39, Q -0.113 ± 0.054, S 1.14 ± 0.51, C 1.05 ± 0.24, R 1.01 ± 0.8, K -0.392 ± 0.28, E -0.0286 ± 0.97, V 1.38 ± 0.53, D 0.974 ± 0.075, H 0.574 ± 0.035, G 0.964 ± 0.44, W 1.82 ± 0.051
K159: D 0.68 ± 0.32, P 0.44 ± 0.17, Y 1.33 ± 0.18, T 1.05 ± 0.27, F 1.44 ± 0.11, N 1.33 ± 0.49, I 1.4 ± 0.24, H 1.18 ± 0.71, S 0.905 ± 0.3, M 0.791 ± 0.066, R 1.48 ± 0.41, C 1.14 ± 0.28, G 0.883 ± 0.64, L 1.18 ± 0.32, A 0.394 ± 0.53, V 1.06 ± 0.78, W 1.36 ± 0.054, Q 0.00224 ± 0.94, E 0.955 ± 0.22
P163: T 0.923 ± 0.82, H 0.674 ± 0.3, D -0.123 ± 0.17, A 0.36 ± 0.6, F 0.944 ± 0.13, L 0.899 ± 0.46, G 0.723 ± 0.95, S 1.3 ± 0.47, Y 1.53 ± 0.24, E 0.136 ± 0.17, R 0.66 ± 0.53, I 1.05 ± 0.22, C 1.48 ± 0.27, V 0.445 ± 0.58, W 2.35 ± 0.1, M 0.889 ± 0.24, N 1.73 ± 0.28, Q 1.05 ± 0.86, K 1.29 ± 0.082
S153: Q 0.582 ± 0.29, D 0.728 ± 0.95, K 0.285 ± 0.37, F 1.67 ± 0.13, H 1.41 ± 0.56, M 1.09 ± 0.36, C 1.2 ± 0.24, W 1.4 ± 0.025, Y 0.691 ± 0.65, G 1.21 ± 0.36, A 0.85 ± 0.41, P 1.7 ± 0.17, E 1.14 ± 0.16, I 1.03 ± 0.44, L 1.16 ± 0.42, V 0.888 ± 0.29, R 0.588 ± 0.29, N 0.697 ± 0.74, T 0.818 ± 0.56
K165: D 0.206 ± 0.069, L 0.369 ± 0.6, A -0.0692 ± 0.52, I 2.29 ± 0.49, P -0.251 ± 0.2, C 0.37 ± 0.17, M 1.15 ± 0.16, Q 0.596 ± 0.87, V 0.921 ± 0.66, E 1.01 ± 0.52, G 0.47 ± 1, S 0.597 ± 0.56, R 0.872 ± 0.69, Y 0.91 ± 0.26, W 1.06 ± 0.12, N 0.909 ± 0.42, F 1.23 ± 0.18, H 1.16 ± 0.37, T -0.814 ± 0.87
P154: V 0.461 ± 0.49, L 1.36 ± 0.46, M -0.062 ± 0.16, T 1.35 ± 0.7, Y 1.68 ± 0.36, G 0.75 ± 0.43, K -1.06 ± 0.26, F 1.89 ± 0.11, N 0.642 ± 0.3, C 0.692 ± 0.45, R 0.579 ± 0.53, D 0.0296 ± 0.054, H 0.26 ± 0.51, A 0.676 ± 0.42, E 0.475 ± 0.28, S 0.685 ± 0.35, I 1.59 ± 0.16, Q -0.0735 ± 0.26, W 1.13 ± 0.17
K161: E 0.442 ± 0.38, V 1.11 ± 0.33, G 1.56 ± 0.57, Y 0.674 ± 0.45, D 1.13 ± 0.7, M 0.88 ± 0.068, H 0.866 ± 0.53, I 1.27 ± 0.34, N 0.888 ± 0.32, A 0.612 ± 0.43, W 0.29 ± 0.037, P 0.742 ± 0.53, F 1.69 ± 0.18, R 1.55 ± 0.51, S 0.458 ± 0.68, C 1.56 ± 0.32, Q 0.799 ± 0.26, L 1.14 ± 0.52, T 0.898 ± 0.54
A152: I 0.777 ± 0.33, T 1.32 ± 0.64, P 0.594 ± 1, E -0.141 ± 0.22, L 1.19 ± 0.46, V 1.17 ± 0.27, Q 0.894 ± 0.41, N 0.485 ± 0.32, D 0.696 ± 0.32, R 0.913 ± 0.49, C 0.402 ± 0.25, M 1.86 ± 0.072, S 0.715 ± 0.46, W 1.68 ± 0.4, G 0.815 ± 0.37, F 1.55 ± 0.15, H 0.789 ± 0.29, K 0.993 ± 0.36, Y 1.21 ± 0.48
P166: H 1.95 ± 0.16, D 0.983 ± 0.71, E -0.713 ± 0.29, I 1.24 ± 0.54, R 0.947 ± 0.72, V 0.921 ± 0.76, F 1.94 ± 0.29, Q 1.16 ± 0.41, G 1.61 ± 0.69, C 1.43 ± 0.72, W -0.356 ± 0.47, Y 1.19 ± 0.33, T 1.36 ± 0.56, L 0.95 ± 0.49, N 1.41 ± 0.1, K -0.231 ± 0.21, M 1.41 ± 0.054, A 1.16 ± 0.69, S 0.939 ± 0.27
S168: D 0.307 ± 0.097, F 1.44 ± 0.11, C 1 ± 0.57, A 0.888 ± 0.66, E 0.606 ± 0.34
P162: M 0.548 ± 0.41, A 0.796 ± 0.87, F 1.37 ± 0.11, L 1.04 ± 0.9, S 0.476 ± 0.69, Y 2.9 ± 0.096, W 1.26 ± 0.46, E 0.27 ± 0.49, T 0.633 ± 0.6, C 1.41 ± 0.097, G 1.1 ± 0.26, N -1.7 ± 0.52, I 1.97 ± 0.41, Q 1.54 ± 0.23, R 0.224 ± 0.29, H 2.88 ± 0.062, V 0.356 ± 0.46
G155: P -0.203 ± 0.099, S 0.589 ± 0.56, Y 1.19 ± 0.37, I 0.209 ± 0.65, H 1.71 ± 0.16, C 0.555 ± 0.12, R 1.01 ± 0.47, M 2.34 ± 0.066, F 1.61 ± 0.35, V 0.534 ± 0.28, T 0.66 ± 0.12, L 0.509 ± 0.4, A 1.44 ± 0.52, W 1.83 ± 0.1, D 0.338 ± 0.16, E 0.777 ± 0.83, N 0.154 ± 0.25, Q -0.156 ± 0.43, K 0.662 ± 0.7
S156: D 0.928 ± 0.48, G 0.917 ± 0.37, C 1.38 ± 0.2, K 0.349 ± 0.15, L 1.55 ± 0.51, P 0.405 ± 0.26, F 1.53 ± 0.14, T 1.75 ± 0.85, Y 0.901 ± 0.32, H 0.981 ± 0.23, N 1.39 ± 0.5, W 1.64 ± 0.071, R 0.968 ± 0.47, M 0.855 ± 0.078, V 1.13 ± 0.6, E 0.377 ± 0.46, Q 0.543 ± 0.33, A 0.976 ± 0.7, I 1.37 ± 0.37
E167: S 0.898 ± 0.7, M 1.68 ± 0.21, H -0.185 ± 0.41, W 2.34 ± 0.058, G 1.02 ± 0.37, F 1.89 ± 0.12, D 1.12 ± 0.48, P 0.414 ± 0.29, C 1.33 ± 0.22, N 1.8 ± 0.078, A 0.894 ± 0.18, R 0.328 ± 0.84, T 0.707 ± 0.28, K 0.721 ± 0.74, V 1.18 ± 0.19, Q 0.862 ± 0.17, I 1.19 ± 0.28, Y 2.17 ± 0.39, L 1.76 ± 0.47
K164: F 1.41 ± 0.2, C 0.129 ± 0.57, H 1.27 ± 0.18, R 1.85 ± 0.55, Q 0.909 ± 0.12, G 1.83 ± 0.32, I 0.719 ± 0.5, D -0.844 ± 0.5, A 1.17 ± 0.25, Y 0.624 ± 0.74, V 0.666 ± 0.47, M 1.88 ± 0.24, T 0.821 ± 0.83, E 0.857 ± 0.29, W 1.33 ± 0.58, S 1.22 ± 0.41, N 1.52 ± 0.46, P 1.62 ± 0.12, L 1.14 ± 0.35
G150: R 0.148 ± 0.46, Y 2.21 ± 0.57, V 0.822 ± 0.59, N 0.149 ± 0.088, P 0.879 ± 0.17, W 2.25 ± 0.039, S 1.63 ± 0.56, T 0.661 ± 0.51
L158: D 0.772 ± 0.62, A 0.834 ± 0.42, M 0.957 ± 0.086, G 1.33 ± 0.7, K 0.11 ± 0.86, E 0.986 ± 0.54, P 0.723 ± 0.55, V 0.815 ± 0.39, I 0.959 ± 0.38, N 1.19 ± 0.29, T 0.209 ± 0.54, C 0.528 ± 0.29, R 0.202 ± 0.6, Q 0.833 ± 0.56, H 0.949 ± 0.3, Y 1.07 ± 0.39, W 1.22 ± 0.042, S 0.724 ± 0.48, F 1.27 ± 0.11
T151: A 1.37 ± 0.58, M 0.378 ± 0.04, P 1.01 ± 0.39, D 1.27 ± 0.33, R 0.807 ± 0.43, N 0.966 ± 0.16, W 1.97 ± 0.091, S 1.01 ± 0.31, C 0.915 ± 0.17, H 1.34 ± 0.22, K 0.845 ± 0.2, G 1.36 ± 0.36, Q 1.28 ± 0.67, V 1.5 ± 0.29, E 1.13 ± 0.21, I 1.3 ± 0.26, Y 1.44 ± 0.23, L 0.905 ± 0.44, F 1.76 ± 0.23
Q157: Y 1.31 ± 0.54, G 1.08 ± 0.46, E 1.26 ± 0.53, H 1.34 ± 0.23, S 1.05 ± 0.49, T 0.825 ± 0.5, V 0.829 ± 0.34, W 0.173 ± 0.069, M 0.398 ± 0.14, C 1.27 ± 0.41, L 1.26 ± 0.39, D 0.498 ± 0.44, I 0.859 ± 0.43, R 0.62 ± 0.58, K 0.787 ± 0.22, P 1.1 ± 0.25, N 0.858 ± 0.49, A 1.13 ± 0.74, F 1.5 ± 0.2
